This note sets out measurements from patent US10662230B2, “Cyclic RGD cell-binding motif and uses thereof” (Spiber Technologies AB, priority 2015, dated 2020).

Entries after “also recorded” stand apart in the source; their conditions may differ. Where only a bound is given, the exact number is not on record here.

Experiment [1] relates to Human dermal microvascular endothelial cells (EC). The experiment can be described thus: Early attachment assay, endothelial cells on silk films. In kind it is cell-based. The conditions noted are these: 1 h adhesion to film. As to the method: Human dermal microvascular endothelial cells (EC), (HDMEC, PromoCell GmbH, Germany) isolated from dermis from adult donor were grown in culture flasks coated with gelatin (Sigma Aldrich) in complete endothelial cell media MV, containing 5% fetal bovine serum (PromoCell GmbH, Germany).
(§1) Cells were harvested at passage 3-8, seeded at 20 000/cm^2 and allowed to adhere to the films or controls for 1 h in a cell incubator before gentle washing twice with pre-warmed phosphate buffered saline (PBS) followed by 10 min fixation with 96% ethanol. After three washings in water, cells were stained for 30 min with 0.1% Crystal Violet in H2O. Plates were dried after extensive washing in water.
(§2) Attachment and morphology of cells bound to the films obtained in Example 3 were documented by taking micrographs at 2× and 10× magnification in an inverted bright field microscope. The color was then dissolved in 40 μL 20% acetic acid for 10 min, and 35 μL of the solution was transferred to a 384-well plate for optical density measurement at 595 nm (TECAN Infinite M200). Wells with cells fixed without pre-washing was used as positive control. Wells with no cells were used as blank. Experiments were run in hexaplicates and repeated three times.
First, we wanted to investigate how well adherent cells attach and spread on the FNCC-silk (FNCC-4RepCT, SEQ ID NO: 13) compared to linear RGD proteins (RGD-4RepCT, SEQ ID NO: 16) and WT silk proteins (4RepCT, SEQ ID NO: 2) obtained in Example 3. Silk films of the three different variants were prepared in cell culture plates, and human primary endothelial cells (EC), mesenchymal stem cells (MSC) or keratinocytes (KC) were allowed to adhere for 1 h before fixation and staining.

In the next experiment the target is T1, integrin α5β1 (Homo sapiens, UniProt P05556+P08648).
T1 construct: endogenous in cells; host or cells: human primary keratinocytes (KC)
Put plainly: Engagement of integrin α5β1 in KC (SNAKA-51/HUTS-4 staining). In kind it is cell-based. To be noted: KC adhering for 3 h. Here is the method:
Primary antibody were used at the following concentrations in 1% BSA: mouse anti human vinculin (Sigma V9131) at 9.5 μg/ml, mouse-anti human beta1-integrin (activated conformation, clone HUTS-4) at 3.3 μg/mL, or mouse-anti human alpha5-integrin (ligand bound conformation, clone SNAKA-51) at 2.5 μg/mL, both Millipore.
Since the integrin α5β1 is known to selectively bind to fibronectin, we decided to investigate if this integrin is involved in the binding of KC to FNCC-silk (SEQ ID NO: 13). To do this, we selected two monoclonal antibodies, developed to specifically recognize the ligand bound conformation of α5 integrin (SNAKA-51) and the activated conformation of β1 integrin (HUTS-4), respectively, and used them in combination for staining of KC adhering to FNCC-silk for 3 h, in combination with staining with phalloidin for F-actin, as set out in Examples 6-7.

The test system of a further experiment is Human Dermal fibroblasts. Put plainly: Cell culture on FNCC silk coatings. The conditions noted are these: coating 0.1 mg/ml. In kind it is cell-based. As to the method:
After purification, solutions of FNCC-silk protein (SEQ ID NO: 13) were used to coat cell culture plates (Sarstedt, hydrophobic plates for suspension cells). Briefly, the protein solutions were diluted to 0.1 mg/ml in Tris buffer, and allowed to incubate at room temperature for 30 minutes before removal and wash.
Cells were harvested using trypsination (TrpLE) and seeded onto the FNcc-silk coatings at suitable cell density (3-10 000 cells/cm2). Cell growth was monitored with Alamar Blue cell viability assay (Molecular Probes) regularly (every 2-3 day). At the end point, after 7-14 days, Live/dead staining was performed.

In experiment [2] the test system is Normal human epidermal keratinocytes (KC). Put plainly: Early attachment assay, keratinocytes on silk films. In kind it is cell-based. Here is the method: Normal human epidermal keratinocytes from adult skin (NHEK-ad) were purchased from Lonza. Subculture, proliferation and migration experiments were done in KGM-Gold (Lonza), containing bovine pituitary extract, whereas adhesion experiments were performed in KGM-CD (chemically defined), supplemented with CaCl2) to give 1.2 mM Ca^2+.
as §1, §2
Determination of cell coverage area within a defined region (9.12 mm^2) of the micrographs (at 2× magnification) was done using the software NIS elements BR (Nikon).
After seeing this positive effect of the introduced FNCC motif, we wanted to find out how well the FNCC-silk would compare to native, full length fibronectin, where the RGD is presented on a turn loop constrained by the structure. We therefore used fibronectin from bovine plasma (BFN) to coat cell culture wells, as well as naked cell culture treated plastic (TCT), on which KC can be cultured, as a control. Serum-free experimental conditions was chosen to avoid possible interactions between the matrices and serum proteins that potentially could give rise to increased cell adherence.
For this purpose, we used two FN-silk variants where a linear RGD presentation is expected (FIG. 1a). The first variant (FNVS; SEQ ID NO: 15), contains the original sequence of the RGD-containing motif in fibronectin, to show the effect of the native flanking amino acids without influence of the loop conformation. In the second variant (FNSS; SEQ ID NO: 14), the two flanking cysteines in FNCC were substituted for serine, which resembles cysteine but lacks the —SH-group and is therefore unable to form disulfide bridges. The different FN-silk variants, as well as RGD-silk (SEQ ID NO: 16) and WT-silk (SEQ ID NO: 2), were evaluated with primary KC. Cells were analyzed both for early attachment (FIG. 5), spreading and formation of stress fibers (FIG. 6), and focal adhesions (FIG. 7). Early attachment assay and cellular stainings were performed as detailed in Example 6.

In experiment [3] the test system is primary keratinocytes (NHEK). Put plainly: Cell viability analysis with Alamar Blue. It counts as cell-based, human. The conditions noted are these: seeding 3 500 cells/cm^2, day 3 and day 6. Here is the method:
For microscopic studies, the proteins were casted as films in chamber glass slides (LabTekII). For Alamar blue experiments, where whole well coverage is desired, the cell culture wells were coated with a covering protein solution of 0.3 mg/ml for 2 h before the liquid was removed. Films and coated surfaces were allowed to dry over night at 25° C. and 30% rh under sterile conditions, then washed twice with sterile 20 mM phosphate buffer, pH 7.4, and pre-incubated with complete cell culture medium for 1 h at 37° C. with 5% CO2 before cell seeding.
Cell growth of primary keratinocytes (NHEK) after initial low seeding density 3 500 cells/cm^2 on wells coated with films of WT-silk (SEQ ID NO: 2) or FNCC-silk (SEQ ID NO: 13) in 96-well plates was monitored with Alamar Blue cell viability assay (Molecular Probes) every third day during the culture period. After 4 h incubation with Alamar blue (diluted 1:10 in cell culture medium), fluorescence intensity of 90 μL supernatants from the cultures was measured with a fluorescence plate reader (CLARIOstar, BMG Labtech) using excitation at 544 nm and emission at 595 nm. Two independent experiments were performed where films were analysed in hexaplicates. Fluorescence intensities, correlating the number of living cells in each well, were plotted over time to yield growth profiles of cells seeded on silk with different cell binding motifs.
A general note: The colour change of resazurin is a common sign of viable cells or microbes.

T1 sequence (P08648 42-894 limits assumed): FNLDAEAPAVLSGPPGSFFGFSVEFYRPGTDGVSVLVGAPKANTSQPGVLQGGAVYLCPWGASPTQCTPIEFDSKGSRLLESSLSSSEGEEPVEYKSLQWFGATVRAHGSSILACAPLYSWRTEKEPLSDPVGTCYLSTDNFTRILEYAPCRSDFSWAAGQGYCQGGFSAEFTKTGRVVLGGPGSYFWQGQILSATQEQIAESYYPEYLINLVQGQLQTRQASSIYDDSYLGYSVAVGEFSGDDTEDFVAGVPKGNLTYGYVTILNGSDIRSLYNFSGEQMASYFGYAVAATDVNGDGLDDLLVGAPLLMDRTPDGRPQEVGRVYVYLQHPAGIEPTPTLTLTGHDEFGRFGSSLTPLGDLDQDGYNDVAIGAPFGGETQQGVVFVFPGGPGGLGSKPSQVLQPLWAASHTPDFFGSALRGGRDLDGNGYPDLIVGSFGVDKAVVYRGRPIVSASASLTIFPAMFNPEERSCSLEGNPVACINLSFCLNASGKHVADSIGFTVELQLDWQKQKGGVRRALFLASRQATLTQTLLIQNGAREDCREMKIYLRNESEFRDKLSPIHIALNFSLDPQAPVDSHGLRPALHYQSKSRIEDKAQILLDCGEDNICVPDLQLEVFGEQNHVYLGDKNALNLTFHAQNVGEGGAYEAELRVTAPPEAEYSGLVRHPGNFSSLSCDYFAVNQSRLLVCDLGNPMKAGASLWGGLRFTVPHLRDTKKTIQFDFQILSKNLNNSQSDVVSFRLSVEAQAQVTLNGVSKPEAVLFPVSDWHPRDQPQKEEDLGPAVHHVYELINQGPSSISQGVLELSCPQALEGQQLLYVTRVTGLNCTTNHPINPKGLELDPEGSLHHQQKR
T1 sequence (P08648 895-1049 partner limits assumed): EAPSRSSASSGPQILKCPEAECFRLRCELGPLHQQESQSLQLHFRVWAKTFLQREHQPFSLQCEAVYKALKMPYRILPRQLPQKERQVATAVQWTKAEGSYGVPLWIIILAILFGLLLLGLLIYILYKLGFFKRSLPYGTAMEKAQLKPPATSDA
T1 sequence (P05556 21-798): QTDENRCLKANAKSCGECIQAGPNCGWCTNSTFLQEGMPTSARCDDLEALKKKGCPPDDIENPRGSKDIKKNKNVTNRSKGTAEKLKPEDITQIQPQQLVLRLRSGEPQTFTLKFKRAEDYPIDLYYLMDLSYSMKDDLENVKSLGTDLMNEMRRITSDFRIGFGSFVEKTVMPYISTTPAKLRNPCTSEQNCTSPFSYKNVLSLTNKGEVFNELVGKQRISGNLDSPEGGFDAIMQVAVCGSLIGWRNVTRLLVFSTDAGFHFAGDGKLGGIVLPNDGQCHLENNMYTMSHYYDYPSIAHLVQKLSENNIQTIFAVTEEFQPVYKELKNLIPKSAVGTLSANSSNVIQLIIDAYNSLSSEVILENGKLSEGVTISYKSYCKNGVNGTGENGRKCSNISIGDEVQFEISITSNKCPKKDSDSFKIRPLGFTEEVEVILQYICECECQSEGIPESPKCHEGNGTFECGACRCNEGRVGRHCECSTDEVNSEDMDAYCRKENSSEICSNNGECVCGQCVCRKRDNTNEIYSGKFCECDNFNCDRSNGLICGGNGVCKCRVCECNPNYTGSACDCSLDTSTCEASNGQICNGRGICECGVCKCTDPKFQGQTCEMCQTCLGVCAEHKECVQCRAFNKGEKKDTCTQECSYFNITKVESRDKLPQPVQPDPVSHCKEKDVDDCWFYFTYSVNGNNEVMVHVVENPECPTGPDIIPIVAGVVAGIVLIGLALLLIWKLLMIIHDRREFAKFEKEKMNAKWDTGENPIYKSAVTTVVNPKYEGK

B1: FNCC-silk: recombinant spider silk protein 4RepCT with N-terminal cysteine-looped RGD motif CTGRGDSPAC (SEQ ID NO: 10) (protein)
chain: GPNSCTGRGDSPACGSASGQGGYGGLGQGGYGQGAGSSAAAAAAAAAAAAGGQGGQGQGGYGQGSGGSAAAAAAAAAAAAAAAGRGQGGYGQGSGGNAAAAAAAAAAAAAAAGQGGQGGYGRQSQGAGSAAAAAAAAAAAAAAGSGQGGYGGQGQGGYGQSSASASAAASAASTVANSVSRLSSPSAVSRVSSAVSSLVSNGQVNMAALPNIISNISSSVSASAPGASGCEVIVQALLEVITALVQIVSSSSVGYINPSAVNQITNVVANAMAQVMG
modifications: cyclic disulfide loop; Fusion protein; DISULFID (5)..(14)
Take B1: the “attachment seen in micrographs” value in experiment [1] (crystal violet staining) is “clear improvement of attachment is seen on the FNCC films compared to both RGD and WT”; in experiment [2] (KC, 1 h adhesion to film, crystal violet staining) it was “clear improvement of attachment is seen on the FNCC films compared to both RGD and WT”. Further, the “OD of crystal violet dissolved from adhered cells (number of bound cells)” value in experiment [1] (seeding 20 000/cm2) was “significantly more cells had bound to the FNCC-silk after 1 h compared to WT silk”; in experiment [1] (seeding 20 000/cm2, listed as FNCC) it was “Significantly more EC had attached to FNCC also compared to RGD silk”. Moreover, the “staining for ligand bound α5 integrin and activated β1 integrin” value with integrin α5β1 is listed as “week but distinct staining pattern resembling the pattern seen when staining for vinculin”. In the experiment on Human Dermal fibroblasts (7-14 days), the “growth profile (Alamar Blue)” value is listed as “positive growth profile”. Also, in the experiment with Human Dermal fibroblasts (after 7-14 days), the “viable cells at the end point (Live/dead staining)” value is greater than 80%. Moreover, the “adhesion in each individual experiment” value in experiment [2] (KC on tested silk films) is listed as “most efficient adhesion of the tested films”. Further, the “cell coverage area within a defined region (9.12 mm^2)” value in experiment [2] (KC, 1 h adhesion to silk films, seeding 20 000/cm2) was “increased attachment (i.e. area covered by cells) compared to both FNSS and FNVS; also recorded: significantly higher adhesion of KC compared to RGD-silk”; in experiment [2] (KC, 1 h adhesion to silk films, seeding 20 000/cm2, listed as FNCC) it was “significantly larger than on both WT- and RGD-silk”; in experiment [2] (KC, 1 h adhesion, comparison with bovine fibronectin coating and TCT plastic, serum-free), “bound equally well to the BFN and the FNCC-silk after 1 h adherence, and importantly both significantly better than TCT”. Moreover, the “OD of dissolved crystal violet” value in experiment [2] (KC, 1 h adhesion, pooled data from 8 experiments (data not shown)) was “very similar results”. For the same molecule, in experiment [2] (KC, DTT, β-mercaptoethanol or TCEP added), the “effect of reducing agents added to the silk solution before films were casted” value is on record as “no differences compared to non-reduced FNCC film were detected”. Further, the “level of viable cells (Alamar Blue fluorescence)” value in experiment [3] was “increased level of viable cells on FNCC-silk compared to WT-silk”.
